Source: patent publication US20040229289A1, “Antigen binding peptides (abtides) from peptide libraries” (Cytogen Corporation, priority 1994, published 2004)
Where a SMILES comes first, the peptide text is derived from it. Where no end group is shown, it is not given here. The star is where a group is joined. DTPA = O=C(O)CN(CCN(CC(=O)O)CC(=O)O)CCN(CC(=O)O)CC(=O)*

Columns and labels:
in vivo = experiment: in vivo; parameters: species or system SCID mice; settings: male, C.B-17/Icr Tac-SCID, mouse, iv, 2 ug, total radioactivity
Procedure: (§1) Male SCID mice (C.B-17/Icr Tac—SCID mice) were purchased from Fox Chase (Philadelphia, Pa.) or. Taconic Farms (Germantown, N.Y.), were housed in sterilized cages with filter bonnets, and were given autoclaved laboratory rodent chow (Purina, St. Louis, Mo.), and filtered tap water ad libitum.
(§2) 1×10^7 cells of the human prostate tumor line LNCaP (Horoszewicz et al., 1987, Anticancer Res. 7:927-936) were injected subcutaneously (s.c.) into the left rear flank of the mice. The cells were growing in exponential phase before harvesting and had been resuspended in 0.2 mL of sterile saline. Tumors were grown in the mice for 2-3 months before abtides were injected into the mice.
(§3) For biodistribution studies, abtides were modified at their amino termini with the chelator diethylene-triamine-pentaacetic acid anhydride (DTPA-A) (Sigma, St. Louis, Mo.). Approximately 2 mg of each abtide was initially dissolved in an appropriate volume of 0.1% acetic acid and then 1 mL of 0.1 M sodium bicarbonate, pH 8.0, was added. Two mg of DTPA-A was suspended in 100 AL of dimethylsulfoxide (DMSO), and 10 μL of the abtide solution added to this DTPA-A suspension. […]
(§4) In one experiment, abtide clone 14-DPTA-^111In (see Table 2) was injected intravenously (i.v.) into two groups of mice bearing measurable LNCaP xenografts. […] Thus, the total injected dose of radioactivity was about 120-140×10^6 cpm.
(§5) The first group of mice was sacrificed 2 hours after injection of the abtide and tissues were dissected for analysis. […] Dissected tissues were weighed and the amount of ^111In in them was determined by gamma counting. The cpm per gram of each tissue was calculated by dividing the cpm of ^111In found in the tissue by the weight in grams of the tissue. […]
(§6) In another experiment, abtide clone 17-DPTA-^111In (see Table 2) was injected intravenously into four SCID mice bearing measurable LNCaP xenografts. […] Thus, the total injected dose of radioactivity was about 100-110×10^6 cpm. […]

[1] = test system: human prostate carcinoma LNCaP xenograft tumors; experiment: in vivo; parameters: species or system SCID mice; settings: mouse, iv
Procedure: as §1, §2, §3, §4, §5, §6

[2] = test system: biotinylated 7E11-9.5 mimetope peptide; experiment: Dot blot: spotted 7E11-C5 abtides probed with biotinylated mimetope peptide; format: binding; settings: 1 μL of 1 mg/mL abtide spotted on nitrocellulose; 0.1 mg/mL mimetope; FIG. 4
Procedure: In some cases, these abtides were used in a dot blot experiment. In those cases, 1 μL of a 1 mg/mL solution of the 38-residue abtides was spotted onto nitrocellulose (0.2 μm or 0.45 μm, Schleicher & Schuell, Keene, NH) strips or circles. After drying (about 1/2 hour), the nitrocellulose was blocked for 1 hour in a solution of 1% BSA in PBS. The nitrocellulose was then allowed to incubate in approximately 5 mL of a solution of 0.1 mg/mL of a biotinylated 7E11-9.5 mimetope peptide (biotin-LYANPGMYSRLHSPA). This mimetope peptide was one of those described in Section 6.1.1 above that were synthesized based upon the nine peptides that were identified in the screening of Section 6.1.1 above. After an hour, the nitrocellulose was washed approximately 5 times with a solution of 1% BSA in PBS. A 1:2000 dilution of Extravidin-Alkaline Phosphatase (4,250 units/mL) (Sigma, St. Louis, Mo.) in PBS was then added and allowed to incubate for 1 hour, after which the nitrocellulose was again washed extensively. Finally, a solution of 5-bromo-4-chloro-3-indolyl phosphate (0.15 mg/mL) and nitro blue tetrazolium (0.3 mg/mL) (Sigma, St Louis, Mo.) (BCIP/NBT) was added as an enzyme substrate. Color was allowed to develop […].
In FIG. 4, the 7E11-C5 abtides known as clone 14, clone 17, clone 15, clone 16, and clone 13 were tested for their ability to bind the biotinylated 7E11-9.5 mimetope peptide. Also tested, as a positive control, was the monoclonal antibody 7E11-C5. 7E11-C5 was spotted onto the region marked 351 in FIG. 4.

[3] = target: T1, native 7E11-C5 antigen in LNCaP lysates (Homo sapiens, UniProt Q04609); experiment: Sandwich assay: capture of antigen from LNCaP cell lysate; format: binding; settings: detection with biotinylated 7E11-C5, FIG. 6
T1 construct: endogenous in cells; host or cells: LNCaP cell lysate
Procedure: A sandwich assay using the LNCaP antigen was performed. The wells of a microtiter plate were coated with either monoclonal antibody 7E11-C5, the clone 14 7E11-C5 abtide, or, as a negative control, BSA. Coating and washing was as for-the assay described in Section 6.1.2.2. One hundred microliters of a lysate of LNCaP cells was added to the wells. The LNCaP lysate was prepared as described in PCT publication WO 94/18318, dated Aug. 18, 1994. Following capture of the lysate on the plate, 100 μL of a 5 μg/mL solution of biotinylated 7E11-CS monoclonal antibody was added to each well. Following incubation and washing as in Section 6.1.2.2, a 1:2000 dilution of Extravidin-Alkaline Phosphatase (4,250 units/mL) (Sigma, St. Louis, Mo.) in PBS was added to each well and incubated for 1 hour at room temperature. Following incubation, the wells were washed four times with 1% BSA in PBS and then twice in PBS. One hundred microliters of a 1 mg/mL solution of p-nitrophenyl phosphate in diethanol amine (DEA) buffer (both from Kirkegaard & Perry Laboratories, Gaithersburg, Md.) was then added and, after incubation at room temperature for 15-30 minutes, the absorbance of the solutions in the wells was read at 405 nm.
This was a surprising discovery and would not have been predicted by those skilled in the art. […]

[4] = test system: monoclonal antibody 7E11-C5; experiment: ELISA: biotinylated monoclonal antibody 7E11-C5 binding to immobilized mimetope peptide 7E11-9.5; parameters: species or system murine; settings: wells coated with 5 μg/mL mimetope; antibody serially diluted from 29 μg/mL; FIG. 2
Procedure: First the mimetope peptide 7 μl-9.5 was tested for its ability to bind to the monoclonal antibody 7E11-C5. Ninety-six well plates (Immunlon 4, Dynatech, Alexandria, Va.) were coated with 50 μL of a 5 μg/mL solution of the mimetope peptide 7 μl-9.5 and incubated overnight at room temperature. Following incubation, the wells were washed 4 times with 1% BSA in PBS. Biotinylated monoclonal antibody 7E11-C5 was serially diluted with PBS beginning with a concentration of 29 μg/mL and various amounts of the monoclonal antibody were added to the wells that had been coated with the mimetope peptide. After incubating for 1 hour at room temperature, the wells were washed four times with 1% BSA in PBS and 2 times with PBS. Then, 100 AL of a 1:2000 dilution of Extravidin-Alkaline Phosphatase (4,250 units/mL) (Sigma, St. Louis, Mo.) in PBS was added to each well. After an hour, the plate was again washed 4 times with PBS and 100 μL of a 1 mg/mL solution of the enzyme substrate p-nitrophenyl phosphate was added to each well. Color was allowed to develop for 15 minutes to 1 hour and absorbance was read at 405 nm.

T1 sequence (Q04609 whole entry): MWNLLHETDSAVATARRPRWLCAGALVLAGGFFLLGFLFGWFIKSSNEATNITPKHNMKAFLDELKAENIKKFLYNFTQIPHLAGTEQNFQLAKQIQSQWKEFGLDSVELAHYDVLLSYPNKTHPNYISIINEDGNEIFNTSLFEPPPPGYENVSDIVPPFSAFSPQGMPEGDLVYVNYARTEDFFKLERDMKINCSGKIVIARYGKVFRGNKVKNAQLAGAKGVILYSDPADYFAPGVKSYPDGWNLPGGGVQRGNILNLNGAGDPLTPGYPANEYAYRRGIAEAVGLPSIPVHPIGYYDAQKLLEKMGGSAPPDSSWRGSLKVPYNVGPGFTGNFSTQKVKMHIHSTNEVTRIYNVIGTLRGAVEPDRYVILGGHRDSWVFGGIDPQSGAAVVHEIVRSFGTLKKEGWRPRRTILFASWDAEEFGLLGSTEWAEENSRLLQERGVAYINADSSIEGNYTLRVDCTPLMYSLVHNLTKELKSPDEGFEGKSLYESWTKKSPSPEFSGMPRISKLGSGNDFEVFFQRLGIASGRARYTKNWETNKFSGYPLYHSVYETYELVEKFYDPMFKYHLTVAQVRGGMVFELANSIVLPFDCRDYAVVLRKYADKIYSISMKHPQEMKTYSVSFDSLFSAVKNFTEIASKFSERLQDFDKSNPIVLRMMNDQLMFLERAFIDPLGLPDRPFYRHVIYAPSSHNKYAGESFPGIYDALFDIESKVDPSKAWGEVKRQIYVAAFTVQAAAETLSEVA

In the case of `CC[C@H](C)[C@H](NC(=O)CNC(=O)CN(CCN(CCN(CC(=O)O)CC(=O)O)CC(=O)O)CC(=O)O)C(=O)N[C@H](C(=O)N[C@@H](CC(N)=O)C(=O)N[C@@H](C)C(=O)N[C@@H](CC(N)=O)C(=O)N[C@@H](CC(=O)O)C(=O)N1CCC[C@H]1C(=O)N[C@@H](CC(C)C)C(=O)N1CCC[C@H]1C(=O)N[C@@H](Cc1ccccc1)C(=O)N[C@@H](Cc1c[nH]c2ccccc12)C(=O)N[C@@H](Cc1ccccc1)C(=O)N[C@@H](CCSC)C(=O)N[C@@H](CO)C(=O)N1CCC[C@H]1C(=O)N[C@@H](Cc1ccc(O)cc1)C(=O)N[C@H](C(=O)N1CCC[C@H]1C(=O)NCC(=O)N1CCC[C@H]1C(=O)N[C@@H](C)C(=O)N1CCC[C@H]1C(=O)N[C@H](C(=O)N[C@@H](CC(=O)O)C(=O)N[C@H](C(=O)N[C@@H](CC(N)=O)C(=O)N[C@@H](C)C(=O)N[C@@H](CO)C(=O)N[C@@H](CCCNC(=N)N)C(=O)N[C@@H](C)C(=O)N[C@@H](CC(C)C)C(=O)N[C@H](C(=O)N[C@@H](CO)C(=O)N[C@@H](CC(N)=O)C(=O)N[C@@H](CCC(=O)O)C(=O)N[C@@H](CO)C(=O)NCC(N)=O)C(C)C)[C@@H](C)CC)[C@@H](C)CC)[C@@H](C)O)[C@@H](C)CC` [abtide clone 14-DPTA-^111In, metal not drawn] ({DTPA}-GIINANDPLPFWFMSPYTPGPAPIDINASRALVSNESG-NH2; N-terminus and C-terminus assumed), the tissue to tissue ratio at 2 h (in vivo) is reported as 1.85 and the “localization to LNCaP xenograft tumors” value [1] is reported as “specific localization to the tumor”.

For `CC[C@H](C)[C@H](NC(=O)[C@H](Cc1ccccc1)NC(=O)[C@@H](NC(=O)[C@@H]1CCCN1C(=O)[C@@H](NC(=O)[C@H](Cc1ccccc1)NC(=O)CNC(=O)[C@@H]1CCCN1C(=O)[C@@H](NC(=O)[C@H](Cc1ccc(O)cc1)NC(=O)[C@H](C)NC(=O)[C@H](CC(N)=O)NC(=O)[C@H](Cc1ccc(O)cc1)NC(=O)[C@H](CC(C)C)NC(=O)[C@H](CC(C)C)NC(=O)[C@H](Cc1ccccc1)NC(=O)[C@H](CCCNC(=N)N)NC(=O)CNC(=O)[C@H](Cc1ccccc1)NC(=O)[C@H](CC(=O)O)NC(=O)[C@H](CC(C)C)NC(=O)[C@H](CC(N)=O)NC(=O)[C@H](CCCNC(=N)N)NC(=O)[C@H](CO)NC(=O)[C@H](CC(C)C)NC(=O)[C@H](CC(=O)O)NC(=O)CN(CCN(CCN(CC(=O)O)CC(=O)O)CC(=O)O)CC(=O)O)C(C)C)[C@@H](C)O)[C@@H](C)O)C(=O)N[C@@H](CO)C(=O)N[C@@H](CC(C)C)C(=O)N[C@H](C(=O)N[C@@H](C)C(=O)N[C@@H](CCC(=O)O)C(=O)N[C@@H](Cc1c[nH]cn1)C(=O)N[C@@H](CC(C)C)C(=O)N[C@@H](CO)C(=O)N[C@@H](CO)C(=O)N1CCC[C@H]1C(=O)N[C@@H](CCCCN)C(=O)NCC(N)=O)[C@@H](C)O` [abtide clone 17-DPTA-^111In, metal not drawn] ({DTPA}-DLSRNLDFGRFLLYNAYVPGFTPTFISLTAEHLSSPKG-NH2), the “localization to LNCaP xenograft tumors” value [1] was “localized to LNCaP xenograft tumors”.

In the case of “GIINANDPLPFWFMSPYTPGPAPIDINASRALVSNESG [clone 14]”, the “binding of biotinylated 7E11-9.5 mimetope peptide in dot blot” value [2] is reported as “bound the mimetope” and the “recognition (capture) of native 7E11-C5 antigen” value [3] is reported as “capable of recognizing the native 7E11-C5 antigen in LNCaP lysates”.

With “LYANPGMYSRLHSPA (not fully specified (N-terminus, C-terminus)) [7E11-9.5]” the “binding of monoclonal antibody 7E11-C5 to mimetope (absorbance at 405 nm)” value [4] was “binds to the synthesized mimetope 7E11-9.5 in a concentration dependent manner”.
